One molecule from patent publication US20260000780A1, “B-LYMPHOCYTE SPECIFIC AMATOXIN ANTIBODY CONJUGATES” (priority 2021, published 2026) can be followed below.

In experiment [1] the test system is Ramos cell line (CD37-positive). As to the kind of experiment: FACS binding / antibodies bound per cell (BD Quantibrite PE), Ramos. Details: species or system human. As to the method: (§1) Binding of the anti-CD37 monoclonal antibody chHH1-HDP-LALA-D265C to the CD37-positive B-cell leukemia (B-CLL) cell lines MEC-1 and MEC-2 as well as to the human Burkitt lymphoma cell lines Raji and Ramos and to the human B-cell precursor leukemia cell line Nalm-6, which is known to be CD37-negative, were tested by fluorescence-activated cell sorting (FACS) analysis.
(§2) In order to estimate antibodies bound per cell (ABC) by flow cytometry, BD Quantibrite PE tubes (Becton Dickinson) were used, which were run at the same instrument settings as the assay, so that the FL2 axis can be converted into the number of PE molecules bound per cell. By using known ratios of PE to antibodies, PE molecules per cell can then be converted to the number of antibodies per cell (Iyer et al. 1997).
(In general: A flow cytometer gives signals particle by particle.)

In another experiment the test system is Raji-Luc tumor xenograft. As to the kind of experiment: Disseminated Raji-Luc tumor xenograft model. Format: in vivo, CB17 Scid mice. To be noted: 3.75 mg/kg (unconjugated antibody); day 89 after treatment. How it is done: Cytotoxic efficacy studies in vivo were performed using various anti-CD37 antibody amatoxin conjugates in a disseminated Raji-Luc tumor xenograft model over 89 days of treatment.
Tumor cell inoculation was done on day-3 by i.v. injection of 2.5×10^6 Raji-Luc cells in CB17 Scid mice. Treatment was performed on day 0 by single dose i.v. injection at maximum tolerable dose (MTD) of 1/16 and MTD of 1/64 doses of cynomolgus MTD, respectively. Readout of the study was body weight, bioluminescence and survival. Results are shown in FIG. 10 (body weight), FIG. 11 (bioluminescence) and FIG. 12 (survival) at day 89 after treatment. All groups treated with conjugate gained body weight as normal, in contrast to the control group.

Experiment [2] concerns MEC-1 cell line (CD37-positive). As to the kind of experiment: FACS binding / antibodies bound per cell (BD Quantibrite PE), MEC-1. How it is done: as §1, §2
For the next experiment, the target named is T1, CD37 (Homo sapiens, UniProt P11049).
T1 construct: A CD37 construct comprising amino acids Ala 113 to Asn 240, expressed in HEK293 cells; Fc fusion tag (Thr 106 to Lys 330); host or cells: HEK293
T1 sequence (P11049 113-240): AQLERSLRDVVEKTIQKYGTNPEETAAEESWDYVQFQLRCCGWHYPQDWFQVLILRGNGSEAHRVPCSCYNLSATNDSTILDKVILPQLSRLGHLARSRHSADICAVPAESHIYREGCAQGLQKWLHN
Put plainly: Biacore binding assay (surface-plasmon resonance). Particulars: CD37 construct Ala 113 to Asn 240 with Fc fusion tag, 31.25 nM to 500 nM. As to the method:
Binding of the monoclonal antibody chHH1-HDP-LALA-D265C to CD37 was confirmed by surface-plasmon resonance (Biacore) interaction analysis. 0.1 μM chHH1-HDP-LALA-D265C was captured using anti-Fab capture (FAB2G) biosensors. Alternatively, biotinylated monoclonal antibody chHH1-HDP-LALA-D265C was captured by streptavidin (SA) sensors. A CD37 construct comprising amino acids Ala 113 to Asn 240, expressed in HEK293 cells with an Fc fusion tag moiety (Thr 106 to Lys 330), was added to the sensor at concentrations of 31.25 nM to 500 nM (1:2 dilution steps), and binding of the CD37 construct was assessed.
In general terms: In SPR one partner is held on a chip, and binding of the other changes the refractive index at the surface.

A further experiment relates to cynomolgus CD37. Put plainly: Cross reactivity with cynomolgus PBMCs by flow cytometry. Format: binding. How it is done:
Cross reactivity of the anti-CD37 chHH1-HDP-LALA-D265C with cynomolgus peripheral blood mononuclear cells (PBMCs) was assessed by flow cytometry. As control, human PBMCs were stained using the same set of antibodies. FACS analysis was done according to a standard protocol. In brief: PBMCs were resuspend in 300 μL staining medium (3.3×10^5 cells/50 μl staining medium). 50 μl cell suspension for each sample (=3.3×10^5 cells per sample) were piptted into one well of an U-well plate. 50 μl of pre-diluted isotype and antibody solutions were added to the samples in each well and incubated for 30 min on ice, followed by the addition of 100 μl ice-cold PBS and centrifugation at 4° C., 300 g, 6 min. The resulting supernatant was discarded and cells were washed with 200 μl ice-cold PBS, pH 7.4 followed by centrifugation at 4° C., 300 g, 6 min. The wash step was repeated once. The supernatant was discarded and cells resuspended in 100 μl of the secondary antibody solution. For the untreated sample (control) 100 μl staining medium were used. Cells were incubated for 30 min on ice protected from light. 100 μl ice-cold PBS were added and cells were centrifuge at 4° C., 300 g, 6 min. The supernatant was discarded and cells were washed twice with 200 μl ice-cold PBS, pH 7.4 and centrifuged at 4° C., 300 g, 6 min. […]

Experiment [3] concerns MEC-2 cell line (CD37-positive). As to the kind of experiment: FACS binding / antibodies bound per cell (BD Quantibrite PE), MEC-2. As to the method:
as §1, §2

In experiment [4] the test system is Raji cell line (CD37-positive). As to the kind of experiment: FACS binding / antibodies bound per cell (BD Quantibrite PE), Raji. Set-up: species or system human. As to the method:
as §1, §2

For experiment [5], the system named is Nalm-6 cell line (CD37-negative). As to the kind of experiment: FACS binding / antibodies bound per cell (BD Quantibrite PE), Nalm-6. Set-up: species or system human. How it is done: as §1, §2

B1: chHH1-HDP-LALA-D265C: Unconjugated anti-CD37 antibody, heavy chain SEQ ID No. 11 (234Ala, 235Ala, 265Cys), light chain SEQ ID No. 12 (antibody)
heavy: EIQLQQSGPELVKPGASVKVSCKASGYSFTDYNMYWVKQSHGKSLEWIGYIDPYNGDTTYNQKFKGKATLTVDKSSSTAFIHLNSLTSEDSAVYYCARSPYGHYAMDYWGQGTSVTVSSASTKGPSVFPLAPSSKSTSGGTAALGCLVKDYFPEPVTVSWNSGALTSGVHTFPAVLQSSGLYSLSSVVTVPSSSLGTQTYICNVNHKPSNTKVDKKVEPKSCDKTHTCPPCPAPEAAGGPSVFLFPPKPKDTLMISRTPEVTCVVVCVSHEDPEVKFNWYVDGVEVHNAKTKPREEQYNSTYRVVSVLTVLHQDWLNGKEYKCKVSNKALPAPIEKTISKAKGQPREPQVYTLPPSREEMTKNQVSLTCLVKGFYPSDIAVEWESNGQPENNYKTTPPVLDSDGSFFLYSKLTVDKSRWQQGNVFSCSVMHEALHNHYTQKSLSLSPGK
light: DIVMTQSHKLLSTSVGDRVSITCKASQDVSTAVDWYQQKPGQSPKLLINWASTRHTGVPDRFTGSGSGTDYTLTISSMQAEDLALYYCRQHYSTPFTFGSGTKLEIKRTVAAPSVFIFPPSDEQLKSGTASVVCLLNNFYPREAKVQWKVDNALQSGNSQESVTEQDSKDSTYSLSSTLTLSKADYEKHKVYACEVTHQGLSSPVTKSFNRGEC
modifications: Heavy chain of chHH1-HDP-LALA-D265C comprising amino acid substitutions L235A, L235A and D265C; Light chain of chHH1-HDP, chHH1-HDP-265C, chHH1-HDP-LALA-D265C, respectively
On to B1, for which the “binding by FACS analysis” value in experiment [1] is reported as “bind strongly”; in experiment [2], “bind strongly”; in experiment [3] it was “bind strongly”; in experiment [4] it was “bind strongly”; in experiment [5] (Nalm-6 (CD37-negative)), “No binding was detected”. The “antibodies bound per cell (ABC) value” in experiment [1] (flow cytometry) is 31,500; in experiment [2] (flow cytometry), 33,004; in experiment [3] (flow cytometry) it was 137,200; in experiment [4] (flow cytometry) it was 32,500; in experiment [5] (Nalm-6, flow cytometry), 42. Also, in the experiment on Raji-Luc tumor xenograft, the Alive animals is on record as 0/10. Moreover, the “binding to CD37 by surface-plasmon resonance (Biacore)” value with CD37 is “confirmed”. Further, the “specific binding to cynomolgus CD37” value in the experiment on cynomolgus CD37 is listed as “does not exhibit specific binding”.
